What was measured:
HIT01-K21Q-R218E [1] = assay: BLI (Octet); antibody IgG 50 ug/ml on AHC sensor, immunogen from 500 nM in 2x dilutions
HIT01-Combo3 = assay: as above
HIT01-K21Q-R218E [2] = assay: BLI (Octet) blocking; HIT01-K21Q-R218E on Ni-NTA sensor, 50 ug/ml AMG145 for 300 s, then NHP serum (competitor) at 200-fold dilution
human PCSK9 (human) = human PCSK9 (human) (UniProt Q8NBP7); assay: BLI (Octet) blocking; wt PCSK9 on Ni-NTA sensor, 50 ug/ml AMG145 for 300 s, then NHP serum (competitor) at 200-fold dilution

| Substance | Kd (HIT01-K21Q-R218E [1]) [nM] | Kd (HIT01-Combo3) [nM] | reduction of serum response when the probe is blocked (HIT01-K21Q-R218E [2]) [%] | reduction of serum response when the probe is blocked (human PCSK9 (human)) [%] |
| --- | --- | --- | --- | --- |
| Alirocumab (antibody) | 58 | 112 | – | – |
| AMG145 (antibody) | < 0.001 | 0.005 | 50 | 50 |
